In the RNAGym collection of RNA variant scans (doi:10.7554/elife.90254) one finds self-cleavage data, which are given here for 39 variants.

The chains are these.
B1: LINE1-full (parent)
chain: UACGUAGGUGGUUUUCCCCUGAUAGUGCUAAGGGGGCCUGGAAGUUUGGACUGGGCAGAGCUCAACACAGCGUGGCAAAGUGGCUGUGGCUAGACUGCCUCUCUGGAUUCCUCGUCACUCAGCAGGGCAUCUCUGAGAGAAAUGCC

In this data set the parent is B1. Put plainly: self-cleavage, relative activity (ratio to wild type); higher = more cleavage; in vitro, sequencing; the parent is a self-cleaving ribozyme.
For the variant UACGUAGGUGGUUUUCCCCUGAUAGUGCUAAGGGGGCCUGGAAGUUUGGACUGGGCAGAGCUCAACACAGCGUAGCAAAGUGGCUGUGGCUAGACUGCCUCUCUGGAUUCCUCGUCACUCAGCAGGGCAGCUCUGAGAGAAAUGCC, the self-cleavage was 1.51. The value for UACGUAGGUGGUUUUCCCCUGAUAGUGCUAAGGGGGCCUGGAAGUUUGGACUGGGCAGAGCUCAACACAGCGUGACAAAGUGGCUGUGGCUAGACUGCCUCACUGGAUUCCUCGUCACUCAGCAGGGCAUCUCUGAGAGAAAUGCC was 1.36; that for UACGUAGGUGGUUUUCCCCUGAUAGUGCUAAGGGGGCCUGGAAGUUUGGACUGGGCAGAGCUCAACACAGCGUAGCAAAGUGGCUGUGGCUAGACUGCCUCUCCGGAUUCCUCGUCACUCAGCAGGGCAUCUCUGAGAGAAAUGCC was 1.34. UACGUAGGUGGUUUUCCCCUGAUAGUGCUAAGGGGGCCUGGAAGUUUGGACUGGGCAGAGCUCAACACAGCGUCGCAAAGUGGCUGUGGCUAGACUGCCUCUCUGGAUUCCUCGUCACUCAGCAGGGCAUCUCUGAGAGGAAUGCC: the self-cleavage turned out to be 1.53.

Consider UACGUAGGUGGUUUUCCCCUGAUAGUGCUAAGGGGGCCUGGAAGUUUGGACUGGGCAGAGCUCAACACAGCGUGACAAAGUGGCUGUGGCUAGACUGCCUCUCCGGAUUCCUCGUCACUCAGCAGGGCAUCUCUGAGAGAAAUGCC, for which the self-cleavage was determined as 1.43. In the case of UACGUAGGUGGUUUUCCCCUGAUAGUGCUAAGGGGGCCUGGAAGUUUGGACUGGGCAGAGCUCAACACAGCGUGACAAAGUGGCUGUGGCUAGACUGCCUCUCAGGAUUCCUCGUCACUCAGCAGGGCAUCUCUGAGAGAAAUGCC, the self-cleavage was 0.87. The value for UACGUAGGUGGUUUUCCCCUGAUAGUGCUAAGGGGGCCUGGAAGUUUGGACUGGGCAGAGCUCAACACAGCGUUGCAAAGUGGCUGUGGCUGGACUGCCUCUCUGGAUUCCUCGUCACUCAGCAGGGCAUCUCUGAGAGAAAUGCC was 0.06; that for UACGUAGGUGGUUUUCCCCUGAUAGUGCUAAGGGGGCCUGGAAGUUUGGACUGGGCAGAGCUCAACACAGCGUUGCAAAGUGGCUGUGGCUAGACUGCCUCUCUGGAUUCCUCGUCACUCUGCAGGGCAUCUCUGAGAGAAAUGCC was 1.02. The value for UACGUAGGUGGUUUUCCCCUGAUAGUGCUAAGGGGGCCUGGAAGUUUGGACUGGGCAGAGCUCAACACAGCGUCGCAAAGUGGCUGUGGCUAGACUGCUUCUCUGGAUUCCUCGUCACUCAGCAGGGCAUCUCUGAGAGAAAUGCC was 0.61. The value for UACGUAGGUGGUUUUCCCCUGAUAGUGCUAAGGGGGCCUGGAAGUUUGGACUGGGCAGAGCUCAACACAGCGUCGCAAAGUGGCUGUGGCUAGACUGCCUCCCUGGAUUCCUCGUCACUCAGCAGGGCAUCUCUGAGAGAAAUGCC was 0.88; that for UACGUAGGUGGUUUUCCCCUGAUAGUGCUAAGGGGGCCUGGAAGUUUGGACUGGGCAGAGCUCAACACAGCGUAGCAAAGUGGCUGUGGCUAGACUGCCUCUCUGGAUUCCUCGUCACCCAGCAGGGCAUCUCUGAGAGAAAUGCC was 1.71. As to UACGUAGGUGGUUUUCCCCUGAUAGUGCUAAGGGGGCCUGGAAGUUUGGACUGGGCAGAGCUCAACACAGCGUGACAAAGUGGCUGUGGCUAGACUGCCUCUCUGGAUUCCUCGUCUCUCAGCAGGGCAUCUCUGAGAGAAAUGCC, the self-cleavage is 1.53.

As to UACGUAGGUGGUUUUCCCCUGAUAGUGCUAAGGGGGCCUGGAAGUUUGGACUGGGCAGAGCUCAACACAGCGUGACAAAGUGGCUGUGGCUAGACUGCCUCUCUGGAUUCCUCGUCACUCAGCAGGGCAUCUCUGAGAGAAAUGCC, the self-cleavage is 1.11. With UACGUAGGUGGUUUUCCCCUGAUAGUGCUAAGGGGGCCUGGAAGUUUGGACUGGGCAGAGCUCAACACAGCGUUGCAAAGUGGCUGUGGCUAGACUGCCUCUCUGGAUUCCUCGUCACUCAGCAGGGCAUCUCUGAGAGAAGUGCC, the self-cleavage stood at 1.63. The figure for UACGUAGGUGGUUUUCCCCUGAUAGUGCUAAGGGGGCCUGGAAGUUUGGACUGGGCAGAGCUCAACACAGCGUUGCAAAGUGGCUGUGGCAAGACUGCCUCUCUGGAUUCCUCGUCACUCAGCAGGGCAUCUCUGAGAGAAAUGCC is 0.57; for UACGUAGGUGGUUUUCCCCUGAUAGUGCUAAGGGGGCCUGGAAGUUUGGACUGGGCAGAGCUCAACACAGCGUUGCAAAGUGGCUGUGGCCAGACUGCCUCUCUGGAUUCCUCGUCACUCAGCAGGGCAUCUCUGAGAGAAAUGCC it is 0.59. As to UACGUAGGUGGUUUUCCCCUGAUAGUGCUAAGGGGGCCUGGAAGUUUGGACUGGGCAGAGCUCAACACAGCGUGACAAAGUGACUGUGGCUAGACUGCCUCUCUGGAUUCCUCGUCACUCAGCAGGGCAUCUCUGAGAGAAAUGCC, the self-cleavage stood at 0.76.

With UACGUAGGUGGUUUUCCCCUGAUAGUGCUAAGGGGGCCUGGAAGUUUGGACUGGGCAGAGCUCAACACAGCGUAGCAAAGUGGCUGUGGCUAGACUGCCUCUCUGGAUUCCUCGACACUCAGCAGGGCAUCUCUGAGAGAAAUGCC, the self-cleavage was 1.45.

For UACGUAGGUGGUUUUCCCCUGAUAGUGCUAAGGGGGCCUGGAAGUUUGGACUGGGCAGAGCUCAACACAGCGUUGCAAAGUGGCUGUGGCUAGACUGCCUCUCUGGAUUCCUCGUCACUCAGCAGGGCAUCUCCGAGAGAAAUGCC, the self-cleavage worked out at 1.88.

UACGUAGGUGGUUUUCCCCUGAUAGUGCUAAGGGGGCCUGGAAGUUUGGACUGGGCAGAGCUCAACACAGCGUGACAAAGUGGCUGUGGCUAGACUGCCUCUCUGGAUUCCUCGUCACUCAGCGGGGCAUCUCUGAGAGAAAUGCC: the self-cleavage was 0.72.

On to UACGUAGGUGGUUUUCCCCUGAUAGUGCUAAGGGGGCCUGGAAGUUUGGACUGGGCAGAGCUCAACACAGCGUGACAAAGUGGCUGUGGCUAGACUGCCUCUCUGGAUUCCUCGACACUCAGCAGGGCAUCUCUGAGAGAAAUGCC, for which the self-cleavage worked out at 1.12.

On to UACGUAGGUGGUUUUCCCCUGAUAGUGCUAAGGGGGCCUGGAAGUUUGGACUGGGCAGAGCUCAACACAGCGUAGCAAAGUGGCUGUGGCUAGACUGCCUCUCUGGACUCCUCGUCACUCAGCAGGGCAUCUCUGAGAGAAAUGCC, for which the self-cleavage stood at 1.48.

Consider UACGUAGGUGGUUUUCCCCUGAUAGUGCUAAGGGGGCCUGGAAGUUUGGACUGGGCAGAGCUCAACACAGCGUUGCAAAGUGGCUGUGGCUAGACUGCCUCUCUGGAUUCCUCGUCACUCAGCAGGGCAUCUCUGAGAGGAAUGCC, for which the self-cleavage was found to be 1.99.

UACGUAGGUGGUUUUCCCCUGAUAGUGCUAAGGGGGCCUGGAAGUUUGGACUGGGCAGAGCUCAACACAGCGUUGCGAAGUGGCUGUGGCUAGACUGCCUCUCUGGAUUCCUCGUCACUCAGCAGGGCAUCUCUGAGAGAAAUGCC: the self-cleavage was 1.01.

Turning to UACGUAGGUGGUUUUCCCCUGAUAGUGCUAAGGGGGCCUGGAAGUUUGGACUGGGCAGAGCUCAACACAGCGUGACAAAGUGGCUGUGGCUAGACUGCCUCUCUGGAUUCCUCGUCACUCAGCAGAGCAUCUCUGAGAGAAAUGCC, the self-cleavage turned out to be 0.87. The value for UACGUAGGUGGUUUUCCCCUGAUAGUGCUAAGGGGGCCUGGAAGUUUGGACUGGGCAGAGCUCAACACAGCGUUGCAAAGUGGCUGUGGCUAGACUGCCUCUCUGGAUUCCUCAUCACUCAGCAGGGCAUCUCUGAGAGAAAUGCC was 1.21; that for UACGUAGGUGGUUUUCCCCUGAUAGUGCUAAGGGGGCCUGGAAGUUUGGACUGGGCAGAGCUCAACACAGCGUUGCAAAGUGGCUGUGGCUAGACUGCCUCCCUGGAUUCCUCGUCACUCAGCAGGGCAUCUCUGAGAGAAAUGCC was 1.42; that for UACGUAGGUGGUUUUCCCCUGAUAGUGCUAAGGGGGCCUGGAAGUUUGGACUGGGCAGAGCUCAACACAGCGUUGCAAAGUGGCUGUGGCUAGACUGCCUCUCUGGAUUCCUCGUCACUCAGCAGGGCACCUCUGAGAGAAAUGCC was 1.64. In the case of UACGUAGGUGGUUUUCCCCUGAUAGUGCUAAGGGGGCCUGGAAGUUUGGACUGGGCAGAGCUCAACACAGCGUGACAAAGUGGCUGUGGCUAGACUGCCUCUCUGGAUUCCUCGUCACUCAGCAGGGCAUCUCUGAGAGGAAUGCC, the self-cleavage was found to be 0.88.

As to UACGUAGGUGGUUUUCCCCUGAUAGUGCUAAGGGGGCCUGGAAGUUUGGACUGGGCAGAGCUCAACACAGCGUGACAGAGUGGCUGUGGCUAGACUGCCUCUCUGGAUUCCUCGUCACUCAGCAGGGCAUCUCUGAGAGAAAUGCC, the self-cleavage came to 0.7. The value for UACGUAGGUGGUUUUCCCCUGAUAGUGCUAAGGGGGCCUGGAAGUUUGGACUGGGCAGAGCUCAACACAGCGUUGCAUAGUGGCUGUGGCUAGACUGCCUCUCUGGAUUCCUCGUCACUCAGCAGGGCAUCUCUGAGAGAAAUGCC was 2.2.

On to UACGUAGGUGGUUUUCCCCUGAUAGUGCUAAGGGGGCCUGGAAGUUUGGACUGGGCAGAGCUCAACACAGCGUGACAAAGUGGCUGUGGCUAGACUGCCUCUCUGGAUCCCUCGUCACUCAGCAGGGCAUCUCUGAGAGAAAUGCC, for which the self-cleavage turned out to be 1.1. The value for UACGUAGGUGGUUUUCCCCUGAUAGUGCUAAGGGGGCCUGGAAGUUUGGACUGGGCAGAGCUCAACACAGCGUGACAAAGUGGCUGUGGCUAGACUGCCUCUCUGGAUACCUCGUCACUCAGCAGGGCAUCUCUGAGAGAAAUGCC was 0.99; that for UACGUAGGUGGUUUUCCCCUGAUAGUGCUAAGGGGGCCUGGAAGUUUGGACUGGGCAGAGCUCAACACAGCGUGACAAAGUGGCUCUGGCUAGACUGCCUCUCUGGAUUCCUCGUCACUCAGCAGGGCAUCUCUGAGAGAAAUGCC was 0.07.

UACGUAGGUGGUUUUCCCCUGAUAGUGCUAAGGGGGCCUGGAAGUUUGGACUGGGCAGAGCUCAACACAGCGUGACAAAGUGGCUGUGGCUAGACUGCCUCUCUGGAUUCCUCGUCACUCAGCAGGGCAUCACUGAGAGAAAUGCC: the self-cleavage was determined as 1.15. The value for UACGUAGGUGGUUUUCCCCUGAUAGUGCUAAGGGGGCCUGGAAGUUUGGACUGGGCAGAGCUCAACACAGCGUGACAAAGUGGCUGUGGCUAGACUGCCUCUCUGGAUUCCUCGUCACUCAGCAGGGCAUCUCUGGGAGAAAUGCC was 1.35; that for UACGUAGGUGGUUUUCCCCUGAUAGUGCUAAGGGGGCCUGGAAGUUUGGACUGGGCAGAGCUCAACACAGCGUGACAAAGUGGCUGCGGCUAGACUGCCUCUCUGGAUUCCUCGUCACUCAGCAGGGCAUCUCUGAGAGAAAUGCC was 0.12; that for UACGUAGGUGGUUUUCCCCUGAUAGUGCUAAGGGGGCCUGGAAGUUUGGACUGGGCAGAGCUCAACACAGCGUUGCAAAGUGGCUGUGGCUAGACUGCCUCUCUGGGUUCCUCGUCACUCAGCAGGGCAUCUCUGAGAGAAAUGCC was 0.51. For the variant UACGUAGGUGGUUUUCCCCUGAUAGUGCUAAGGGGGCCUGGAAGUUUGGACUGGGCAGAGCUCAACACAGCGUGACAAAGUGGCUGUGGCUAGACUGCCUCUCUGGAUUCCUCGUCACUCAGCAGGGCACCUCUGAGAGAAAUGCC, the self-cleavage was found to be 0.95.
